From US20130078188

Assays:
[1] = system: FRET-ACPP 2
[2] = system: RACPP2
[3] = system: RACPP1
[4] = system: Cy7-NH-e9-c(S-Peg12)oPLGC(Me)AG-r9-c(Cy5)-CONH2 (20, RACPPPLGC(Me)AG)
[5] = system: Cy7-NH-e9-c(S-Peg12) oPPRSFL-r9-c(Cy5)-CONH2 (10, RACPPPPRSFL)
[6] = system: Cy7-NH-e9-c(S-Peg12) oDPRSFL-r9-c(Cy5)-CONH2 (5, RACPPDPRSFL)
Sequence of Cy7-NH-e9-c(S-Peg12) oDPRSFL-r9-c(Cy5)-CONH2 (5, RACPPDPRSFL) (chain, as listed by the source): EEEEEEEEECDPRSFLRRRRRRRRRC

Sequence of Cy7-NH-e9-c(S-Peg12) oPPRSFL-r9-c(Cy5)-CONH2 (10, RACPPPPRSFL) (chain, as listed by the source): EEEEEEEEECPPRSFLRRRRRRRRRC
Sequence of RACPP1 (chain, as listed by the source): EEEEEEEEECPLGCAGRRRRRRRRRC
Sequence of MMP-9 (chain, as listed by the source): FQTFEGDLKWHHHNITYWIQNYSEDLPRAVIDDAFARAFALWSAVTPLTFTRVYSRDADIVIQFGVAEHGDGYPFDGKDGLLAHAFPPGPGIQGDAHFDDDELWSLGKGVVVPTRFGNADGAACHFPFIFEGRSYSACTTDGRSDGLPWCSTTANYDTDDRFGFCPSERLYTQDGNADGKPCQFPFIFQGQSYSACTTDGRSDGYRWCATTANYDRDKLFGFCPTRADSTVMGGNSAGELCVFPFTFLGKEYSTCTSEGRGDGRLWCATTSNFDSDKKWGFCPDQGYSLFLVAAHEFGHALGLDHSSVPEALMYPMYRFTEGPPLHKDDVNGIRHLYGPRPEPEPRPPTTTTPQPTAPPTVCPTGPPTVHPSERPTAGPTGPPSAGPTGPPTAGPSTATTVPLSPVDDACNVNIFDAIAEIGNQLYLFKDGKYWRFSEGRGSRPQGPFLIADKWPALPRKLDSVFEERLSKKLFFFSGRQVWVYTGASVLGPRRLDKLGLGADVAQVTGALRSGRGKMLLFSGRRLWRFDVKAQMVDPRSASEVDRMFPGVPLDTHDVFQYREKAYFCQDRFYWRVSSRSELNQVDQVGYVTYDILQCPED
Sequence of RACPP2 (chain, as listed by the source): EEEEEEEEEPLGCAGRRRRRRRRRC

Row | Substance | fraction of peptide cleaved, HPLC [1] | increase of the Cy5 peak, extrapolated to 100% cleavage [1] | peptide cleavage, tricine SDS-PAGE with Cy5 and Cy7 imaging [2] | decrease in Cy7 re-emission on cleavage, in mouse plasma [3] | extent of cleavage [3] | increase in Cy5 emission on cleavage, in mouse plasma [3] | increase in the ratio of 670/780 nm emissions on cleavage [3] | peptide cleavage, SDS-PAGE with Cy5/Cy7 ratio imaging [4] | kcat/Km (cleavage activity) [5] | kcat/Km [6] | change in Cy5/Cy7 emission ratio on cleavage, in plasma [5] | decrease in Cy7 re-emission on cleavage, in plasma [5] | increase in Cy5 emission on cleavage, in plasma [5] | kcat/Km [5] | peptide cleavage, SDS-PAGE with Cy5/Cy7 ratio imaging [5] | peptide cleavage, SDS-PAGE with Cy5/Cy7 ratio imaging [6]
1 | MMP-9 | 87% of the peptide had been cleaved | the Cy5 peak increases about 7 fold | All three components (intact uncleaved peptide, r9 and e9 fragments) are well separated and can be seen as distinct bands in the gel | decreased Cy7 re-emission by ˜4 fold | after (red dashed curve)>95% complete cleavage with MMP-9 | increased Cy5 emission by ˜10 fold | net 40-fold increase in the ratio of 670/780 nm emissions | – | – | – | – | – | – | – | – | –
2 | factor Xa | – | – | – | – | – | – | – | not cleaved by any of the pro-coagulation enzymes | no detectable activity towards RACPPPPRSFL | 6200 M⁻¹ s⁻¹ | – | – | – | – | – | –
3 | thrombin | – | – | – | – | – | – | – | not cleaved by any of the pro-coagulation enzymes | – | kcat/km=1.2×10^4 M^-1s^-1 | 34 fold change in Cy5/Cy7 emission ratio | 3.8 fold decrease in Cy7 re-emission | 8.8 fold increase in Cy5 emission | 7300 M⁻¹ s⁻¹ | cleaved by thrombin in a time dependent manner and that RACPPPPRSFL(10) is selective for thrombin | cleaved by thrombin in a time dependent manner
